Reference: patent US20260124223A1, “CANCER IMMUNOTHERAPIES” (Northwestern University, priority 2022, published 2026)

How the values were obtained:
[1] = molecular target: human FcγRIIIA V158 protein (his-tagged) (human) (UniProt P08637); assay: SPR (Biacore T200), his-tagged receptor captured on anti-His CM5 chip, antibody injected
[2] = molecular target: human FcγRIIB protein (his-tagged) (human) (UniProt P31994); assay: as above
[3] = molecular target: human FcγRIIIA F158 protein (his-tagged) (human) (UniProt P08637); assay: as above
human FcγRIIIA F158 protein (his-tagged) (human), sequence (P08637 17-208 limits assumed): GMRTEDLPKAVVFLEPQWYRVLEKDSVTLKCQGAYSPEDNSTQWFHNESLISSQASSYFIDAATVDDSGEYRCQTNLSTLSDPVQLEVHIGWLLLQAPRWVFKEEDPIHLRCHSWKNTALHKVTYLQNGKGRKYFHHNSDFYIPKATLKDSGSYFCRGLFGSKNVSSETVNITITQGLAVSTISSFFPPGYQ

[4] = molecular target: mouse FcγRIV protein (his-tagged) (mouse); assay: as above
mouse FcγRIV protein (his-tagged) (mouse), sequence (A0A0B4 entry or part of it limits assumed): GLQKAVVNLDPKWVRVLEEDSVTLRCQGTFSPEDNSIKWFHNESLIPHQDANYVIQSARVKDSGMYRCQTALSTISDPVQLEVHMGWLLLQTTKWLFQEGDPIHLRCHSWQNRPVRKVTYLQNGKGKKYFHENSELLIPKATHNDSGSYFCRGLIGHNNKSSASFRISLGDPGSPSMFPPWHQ

[5] = molecular target: mouse FcγRIIB protein (his-tagged) (mouse) (UniProt P08101); assay: as above
mouse FcγRIIB protein (his-tagged) (mouse), sequence (P08101 30-210 limits assumed): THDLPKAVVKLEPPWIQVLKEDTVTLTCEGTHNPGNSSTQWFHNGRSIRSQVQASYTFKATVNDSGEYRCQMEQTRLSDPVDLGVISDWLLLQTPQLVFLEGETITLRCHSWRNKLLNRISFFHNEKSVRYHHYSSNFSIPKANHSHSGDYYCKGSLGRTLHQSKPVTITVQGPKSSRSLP

[6] = molecular target: mouse FcγRIV protein (his-tagged) (mouse); assay: ratio of SPR binding to mouse FcγRIV against inhibitory mouse FcγRIIB

human FcγRIIIA V158 protein (his-tagged) (human), sequence (P08637 17-208 F176V limits assumed): as the sequence (P08637 17-208 limits assumed) above, with F160V counted along it
human FcγRIIB protein (his-tagged) (human), sequence (P31994 43-217 limits assumed): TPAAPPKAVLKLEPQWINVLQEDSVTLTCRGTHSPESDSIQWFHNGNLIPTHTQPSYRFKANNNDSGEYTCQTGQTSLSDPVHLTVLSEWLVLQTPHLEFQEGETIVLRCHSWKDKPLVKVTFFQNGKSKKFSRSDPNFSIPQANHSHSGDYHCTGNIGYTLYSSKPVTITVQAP

| Substance | Kd [1] [nM] | Kd [2] [nM] | Kd [3] [nM] | Kd [4] [nM] | Kd [5] [nM] | A/I ratio (IV/IIB) [6] |
| --- | --- | --- | --- | --- | --- | --- |
| Fc-enhanced anti-human CTLA-4 antibody (hIgG1.DLE) (from UniProt P01857 1-330) | 2.76 | 3230 | 2.83 | – | – | – |
| Fc-enhanced mouse reactive anti-CTLA4 antibody (clone 9D9, mIgG2b.DLE) (from UniProt P01867 1-335) | – | – | – | 1.7 | 7110 | 4180 |
| anti-mouse CTLA-4 antibody, clone 9D9, mouse IgG2b (unmodified) | – | – | – | 61.3 | 5800 | 95 |
